Test results published in patent US20190270793A1.

Molecular target: tau seeds in spinal cord homogenates of P301S transgenic mice (aggregated transgenic human tau) (human), P10636
Assay: cell-based or functional assay

tau seeds in spinal cord homogenates of P301S transgenic mice (aggregated transgenic human tau) (human), P10636, sequence (P10636 other isoform, or with tags, fused parts or gaps P301S P301S): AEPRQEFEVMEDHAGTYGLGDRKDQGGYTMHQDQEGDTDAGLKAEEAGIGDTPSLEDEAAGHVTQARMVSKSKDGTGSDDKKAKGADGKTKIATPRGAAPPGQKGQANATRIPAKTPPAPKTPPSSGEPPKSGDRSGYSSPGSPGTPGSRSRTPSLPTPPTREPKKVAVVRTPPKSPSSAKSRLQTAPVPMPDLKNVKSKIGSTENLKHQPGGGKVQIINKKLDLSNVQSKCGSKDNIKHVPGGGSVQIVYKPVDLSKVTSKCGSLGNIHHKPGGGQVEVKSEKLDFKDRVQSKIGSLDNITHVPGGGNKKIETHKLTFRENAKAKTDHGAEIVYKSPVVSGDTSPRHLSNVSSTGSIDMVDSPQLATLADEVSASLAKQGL

Tau aggregate induction (K18 aggregate formation, FRET-positive HEK cells counted by FACS): 3 nM
B1: PT82 mAb, recombinantly expressed (mouse IgG2a/kappa) (antibody, V domains shown)
VH: EVKLEESGGGLVQPGGSMKLSCVASGFTFSNYWMNWIRQSPEKGLEWVAQIRLQSDNYATRYAESVKGRFTISRDESKTSVYLQMNNLRTEDTGIYYCTGGTTYWGQGTLVTVSA
VL: DIVMTQSQKFMSTSVGDRVSITCKASQNVGTAVAWYQQKPGQSPKLLIYSASIRYTGVPDRFTGSGSGTDFTLTINYMQSEDLADYFCQQFSSYPYTFGGGTKLEIK
